# US20070116673
# T1: synthetic integrin α1 cytoplasmic tail peptide (RPLKKKMEKRPLKKKMEK)
# T1 chain: RPLKKKMEKRPLKKKMEK
# T2: α2 peptide KLGFFKRKYEKMTKNPDEIDETTELSS (synthetic integrin α2 cytoplasmic tail peptide)
# T2 chain: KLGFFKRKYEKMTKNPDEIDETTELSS
# Experiments:
# [1] = biological target: T1, synthetic integrin α1 cytoplasmic tail …
# [2] = biological target: T2, α2 peptide KLGFFKRKYEKMTKNPDEIDETTELSS …
Protein,phosphatase activity of immunoprecipitated SHP-2 (diFMUP substrate) [1],phosphatase activity of immunoprecipitated SHP-2 (diFMUP substrate) [2],catalytic activity of immunoprecipitated TCPTP (diFMUP substrate) [1],catalytic activity of immunoprecipitated TCPTP (diFMUP substrate) [2]
SHP-2 (protein tyrosine phosphatase immunoprecipitated from HeLa lysates) (protein) TSRRWFHPNITGVEAENLLLTRGVDGSFLARPSKSNPGDFTLSVRRNGAVTHIKIQNTGDYYDLYGGEKFATLAELVQYYMEHHGQLKEKNGDVIELKYPLNCADPTSERWFHGHLSGKEAEKLLTEKGKHGSFLVRESQSHPGDFVLSVRTGDDKGESNDGKSKVTHVMIRCQELKYDVGGGERFDSLTDLVEHYKKNPMVETLGTVLQLKQPLNTTRINAAEIESRVRELSKLAETTDKVKQGFWEEFETLQQQECKLLYSRKEGQRQENKNKNRYKNILPFDHTRVVLHDGDPNEPVSDYINANIIMPEFETKCNNSKPKKSYIATQGCLQNTVNDFWRMVFQENSRVIVMTTKEVERGKSKCVKYWPDEYALKEYGVMRVRNVKESAAHDYTLRELKLSKVGQGNTERTVWQYHFRTWPDHGVPSDPGGVLDFLEEVHHKQESIMDAGPVVVHCSAGIGRTGTFIVIDILIDIIREKGVDCDIDVPKTIQMVRSQRSGMVQTEAQYRFIYMAVQHYIETLQRRIEEEQKSKRKGHEYTNIKYSLADQTSGDQSPLPPCTPTPPCAEMREDSARVYENVGLMQQQKSFR,"another protein tyrosine phosphatase, SHP-2, was not activated by either peptide","another protein tyrosine phosphatase, SHP-2, was not activated by either peptide",,
endogenous TCPTP (T cell protein tyrosine phosphatase) of HeLa cells (protein) MPTTIEREFEELDTQRRWQPLYLEIRNESHDYPHRVAKFPENRNRNRYRDVSPYDHSRVKLQNAENDYINASLVDIEEAQRSYILTQGPLPNTCCHFWLMVWQQKTKAVVMLNRIVEKESVKCAQYWPTDDQEMLFKETGFSVKLLSEDVKSYYTVHLLQLENINSGETRTISHFHYTTWPDFGVPESPASFLNFLFKVRESGSLNPDHGPAVIHCSAGIGRSGTFSLVDTCLVLMEKGDDINIKQVLLNMRKYRMGLIQTPDQLRFSYMAIIEGAKCIKGDSSIQKRWKELSKEDLSPAFDHSPNKIMTEKYNGNRIGLEEEKLTGDRCTGLSSKMQDTMEENSESALRKRIREDRKATTAQKVQQMKQRLNENERKRKRWLYWQPILTKMGFMSVILVGAFVGWTLFFQQNAL,,,increased 2.95±0.48 fold,the corresponding α2 tail peptide had no effect
